Details: whole UniProt chain shown
[1] = Rattus norvegicus, pH 7, 25 °C, Urea, CD, Sodium phosphate 25 mM, NaCl 75 mM, reversible: yes
[2] = Rattus norvegicus, pH 7, 25 °C, Urea, Fluorescence, Sodium phosphate 25 mM, NaCl 75 mM, reversible: yes
[3] = Rattus norvegicus, pH 7, 27 °C, Urea, CD, Phosphate 10 mM
[4] = Rattus norvegicus, pH 7, 27 °C, Urea, Magnetic Relaxation Dispersion, Phosphate 10 mM
[5] = Rattus norvegicus, pH 7.2, 20 °C, GdnHCl, Fluorescence, Potassium phosphate 20 mM, reversible: yes
[6] = Rattus norvegicus, pH 7.4, 20 °C, GdnHCl, CD, Potassium phosphate 20 mM, reversible: yes
[7] = Rattus norvegicus, pH 7.4, 20 °C, GdnHCl, Fluorescence, Potassium phosphate 20 mM, reversible: yes
[8] = Rattus norvegicus, pH 9.6, 20 °C, GdnHCl, Fluorescence, Sodium pyrophosphate 20 mM, reversible: yes
[9] = Pyrococcus furiosus (strain ATCC 43587 / DSM 3638 / JCM 8422 / Vc1), pH 7, 40 °C, GdnHCl, CD, Tris-HCl 20 mM, reversible: yes
[10] = Pyrococcus furiosus (strain ATCC 43587 / DSM 3638 / JCM 8422 / Vc1), pH 7, 60 °C, GdnHCl, CD, Tris-HCl 20 mM, reversible: yes
[11] = Oryctolagus cuniculus, pH 7.4, Thermal, DSC, sodium phosphate 50 mM, reversible: yes
[12] = Phaseolus vulgaris, pH 7, 25 °C, GdnHCl, CD, Potassium phosphate 50 mM, Na2SO4 0.5 M, reversible: yes
[13] = Phaseolus vulgaris, pH 7, 25 °C, GdnHCl, Fluorescence, Potassium phosphate 50 mM, Na2SO4 0.5 M, reversible: yes
[14] = Pseudomonas aeruginosa (strain ATCC 15692 / DSM 22644 / CIP 104116 / JCM 14847 / LMG 12228 / 1C / PRS 101 / PAO1), pH 7, 20 °C, GdnHCl, CD, phosphate 5 mM, reversible: yes
[15] = Pseudomonas aeruginosa (strain ATCC 15692 / DSM 22644 / CIP 104116 / JCM 14847 / LMG 12228 / 1C / PRS 101 / PAO1), pH 8, Thermal, DSC, Tris-HCl 10 mM, NaCl 200 mM, reversible: yes

B1: Fatty acid-binding protein, brain wild type, P55051 (protein)
chain: MVDAFCATWKLTDSQNFDEYMKALGVGFATRQVGNVTKPTVIISQEGGKVVIRTQCTFKNTEISFQLGEEFEETSIDDRNCKSVIRLDGDKLIHVQKWDGKETNCVREIKDGKMVVTLTFGDVVAVRCYEKA
[1]
  denaturant m value: 1.04 kcal/mol/M
  denaturant midpoint (higher = more stable): 4.1 M
  unfolding free energy: 4.28 kcal/mol
[2]
  denaturant m value: 1.13 kcal/mol/M
  denaturant midpoint (higher = more stable): 4.24 M
  unfolding free energy: 4.79 kcal/mol
[3]
  denaturant m value: 1 kcal/mol/M
  denaturant midpoint (higher = more stable): 5.1 M
[4]
  denaturant m value: 0.88 kcal/mol/M
  denaturant midpoint (higher = more stable): 6.5 M
[5]
  denaturant midpoint (higher = more stable): 1.36 M
  unfolding free energy: 5.22 kcal/mol
[6]
  denaturant m value: 5.33 kcal/mol/M
  denaturant midpoint (higher = more stable): 1.32 M
  unfolding free energy: 7.06 kcal/mol
[7]
  denaturant m value: 3.82 kcal/mol/M
  denaturant midpoint (higher = more stable): 1.36 M
  unfolding free energy: 5.22 kcal/mol
Rattus norvegicus, pH 8, 25 °C, Urea, CD, NaH2PO4 25 mM/, NaCl 75 mM, reversible: Yes
  unfolding free energy: 5.86 kcal/mol
Rattus norvegicus, pH 8, 25 °C, Urea, Fluorescence, NaH2PO4 25 mM/, NaCl 75 mM, reversible: Yes
  unfolding free energy: 5.28 kcal/mol
[8]
  denaturant midpoint (higher = more stable): 1.41 M
  unfolding free energy: 5.59 kcal/mol

B2: Parvalbumin alpha wild type, P02625 (protein)
chain: MSMTDLLSAEDIKKAIGAFTAADSFDHKKFFQMVGLKKKSADDVKKVFHILDKDKSGFIEEDELGSILKGFSSDARDLSAKETKTLMAAGDKDGDGKIGVEEFSTLVAES
Rattus norvegicus, pH 7.74, 30 °C, Thermal, CD, piperazine 10 mM, KCl 200 mM
  unfolding free energy: 0.7 kcal/mol
Rattus norvegicus, pH 7.74, Thermal, CD, piperazine 10 mM, KCl 200 mM
  Tm: 35 °C

B3: Pyrrolidone-carboxylate peptidase wild type, O73944 (protein)
chain: MKVLVTGFEPFGGEKINPTERIAKDLDGIKIGDAQVFGRVLPVVFGKAKEVLEKTLEEIKPDIAIHVGLAPGRSAISIERIAVNAIDARIPDNEGKKIEDEPIVPGAPTAYFSTLPIKKIMKKLHERGIPAYISNSAGLYLCNYVMYLSLHHSATKGYPKMSGFIHVPYIPEQIIDKIGKGQVPPSMCYEMELEAVKVAIEVALEELL
[9]
  denaturant m value: 4.66 kcal/mol/M
  denaturant midpoint (higher = more stable): 0.4 M
  unfolding free energy: 1.82 kcal/mol
[10]
  denaturant m value: 4.13 kcal/mol/M
  denaturant midpoint (higher = more stable): 3.2 M
  unfolding free energy: 13 kcal/mol

B4: Cytochrome b5 wild type, P00169 (protein)
chain: MAAQSDKDVKYYTLEEIKKHNHSKSTWLILHHKVYDLTKFLEEHPGGEEVLREQAGGDATENFEDVGHSTDARELSKTFIIGELHPDDRSKLSKPMETLITTVDSNSSWWTNWVIPAISALIVALMYRLYMADD
Oryctolagus cuniculus, pH 7.4, 25 °C, Thermal, DSC, sodium phosphate 50 mM, reversible: yes
  unfolding free energy: 1.7 kcal/mol
[11]
  Tm: 48.5 °C
  heat capacity change of unfolding: 1 kcal/mol/K
  unfolding enthalpy (calorimetric): 35.7 kcal/mol

B5: Plastocyanin wild type, P00287 (protein)
chain: LEVLLGSGDGSLVFVPSEFSVPSGEKIVFKNNAGFPHNVVFDEDEIPAGVDAVKISMPEEELLNAPGETYVVTLDTKGTYSFYCSPHQGAGMVGKVTVN
[12]
  denaturant m value: 2.7 kcal/mol/M
  denaturant midpoint (higher = more stable): 2.1 M
  unfolding free energy: 5.8 kcal/mol
[13]
  denaturant m value: 2.5 kcal/mol/M
  denaturant midpoint (higher = more stable): 2.1 M
  unfolding free energy: 5.3 kcal/mol

B6: Azurin wild type, P00282 (protein)
chain: MLRKLAAVSLLSLLSAPLLAAECSVDIQGNDQMQFNTNAITVDKSCKQFTVNLSHPGNLPKNVMGHNWVLSTAADMQGVVTDGMASGLDKDYLKPDDSRVIAHTKLIGSGEKDSVTFDVSKLKEGEQYMFFCTFPGHSALMKGTLTLK
[14]
  denaturant m value: 4.18 kcal/mol/M
  denaturant midpoint (higher = more stable): 1.7 M
  unfolding free energy: 6.96 kcal/mol
Pseudomonas aeruginosa (strain ATCC 15692 / DSM 22644 / CIP 104116 / JCM 14847 / LMG 12228 / 1C / PRS 101 / PAO1), pH 7.5, 40 °C, GdnHCl, Fluorescence, Tris Cl 2 mM, reversible: Yes
  unfolding free energy: 8.6 kcal/mol
[15]
  Tm: 62 °C
  unfolding enthalpy (calorimetric): 165 kcal/mol
